Measured values published in article PMC6690855.

Molecular target: Caut-bCAstrepC (C-terminal STREPII-tagged β-class carbonic anhydrase of Clostridium autoethanogenum) (Clostridium autoethanogenum)
Test: AUC; sedimentation velocity, 50,000 rpm, 2-fold protein dilution series starting at 0.7 mg/ml, absorbance at 280 nm and interference optics; SEDFIT c(s) and non-interacting discrete species (NIDS) models

stoichiometry N: 2
Substance: Caut-bCAstrepC (C-terminal STREPII-tagged β-class carbonic anhydrase of Clostridium autoethanogenum) (enzyme)
